± gives the standard deviation of the averaged measurements.
Tested on: Saccharomyces cerevisiae
Test: protein stability index of tFT-peptide fusion (C-terminal peptide) (PSI (0-1 scale)); higher = more stable (slower turnover)
Settings: genetic background: wild type; temperature: 30 C
Description: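 Multiplexed protein stability (MPS) profiling in S. cerevisiae. Random 12-aa peptides (tFT-X12 library) are fused to the C-terminus of a sfGFP-mCherry tandem fluorescent timer, after mCherry and a GGGS linker. Cells are FACS-sorted into 8 mCherry/sfGFP bins and deep-sequenced. The protein stability index (PSI) is the read-weighted bin average, scaled from 0 (unstable) to 1 (stable). Only peptides with >10 reads are reported; cells were grown at 30 °C in SC-His with glucose.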
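Also: PSI is a weighted mean of sequencing reads over stability bins, variants kept only with over 10 reads, mCherry proximal and sfGFP distal, peptide attached via GGGS linker.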

Row | Sequence | protein stability index
1 | EEEAETRHSMVY | 0.738 ± 0.041
2 | EEEQGPSENEKT | 0.9714 ± 0.0082
3 | EEHWDCEYVAFH | 0.719 ± 0.015
4 | EEMMEWKKREEK | 0.6596 ± 0.0009
5 | EEREKKWKGKGK | 0.718 ± 0.035
6 | EETRLQEVNRIL | 0.737 ± 0.033
7 | EETTSNLGLKVN | 0.5617 ± 0.0014
8 | EFKLINLETQRC | 0.706 ± 0.017
9 | EFMRHAFTPLPT | 0.733 ± 0.041
10 | EFPPPPSSRSCA | 0.712 ± 0.013
11 | EFRWVASGDLLS | 0.749 ± 0.017
12 | EGDGQGWGGQGG | 0.702 ± 0.03
13 | EGDGQVWGGQGG | 0.644 ± 0.0078
14 | EGDKGGGEQKRQ | 0.688 ± 0.031
15 | EGDRLVKEVGEE | 0.654 ± 0.12
16 | EGEGAGRWCGRG | 0.66 ± 0.051
17 | EGEVGGRWCGRG | 0.676 ± 0.046
18 | EGGAGGGVWGLG | 0.819 ± 0.11
19 | EGGFGSVLGGRG | 0.724 ± 0.058
20 | EGGTGCLAMSVG | 0.7 ± 0.012
21 | EGIDFVDQRLLS | 0.663 ± 0.005
22 | EGLTYIPCQTDC | 0.812 ± 0.028
23 | EGRRAGRVGTQV | 0.688 ± 0.024
24 | EGSEAYQWETLG | 0.681 ± 0.038
25 | EGSLHLHLSLST | 0.66 ± 0.029

Row | Sequence | protein stability index
26 | EGSVGRRGHCVR | 0.6959 ± 0.0055
27 | EGTPLTIQRIGE | 0.666 ± 0.094
28 | EGWRWEGGVWEG | 0.676 ± 0.022
29 | EGYGPSVRYRRS | 0.639 ± 0.084
30 | EIHKDSNTENIK | 0.663 ± 0.0031
31 | EIKKKKSQTKKT | 0.67 ± 0.085
32 | EITKVKDNEKIN | 0.686 ± 0.12
33 | EKGRGGIGSRGK | 0.768 ± 0.064
34 | EKKIDPTVKEGK | 0.663 ± 0.0094
35 | EKKNMRYKTVEI | 0.668 ± 0.066
36 | EKLKTKEEKKTR | 0.759 ± 0.054
37 | EKRKNKKYKNKM | 0.698 ± 0.049
38 | EKSGKDKRKNEI | 0.723 ± 0.062
39 | EKSRSLACQHST | 0.6725 ± 0.0052
40 | ELCWCSKDNCYP | 0.6993 ± 0.0059
41 | ELFHVGQLNSHE | 0.738 ± 0.12
42 | ELGTDGSQKRAA | 0.7045 ± 0.0053
43 | ELHPPIPYPSRP | 0.6773 ± 0.0047
44 | ELIDGKLLRHRQ | 0.733 ± 0.061
45 | ELKGHIPFTLSR | 0.703 ± 0.04
46 | ELLSCGCCMVQS | 0.5622 ± 0.0025
47 | ELNGLSLVRKKK | 0.662 ± 0.021
48 | ELRFRGITRTTV | 0.725 ± 0.052
49 | ELSCMDGPLLCP | 0.683 ± 0.059
50 | ELSPLSYRNRTA | 0.6835 ± 0.001

Row | Sequence | protein stability index
51 | EMEHANDARRVS | 0.67 ± 0.015
52 | ENERRESLTMVR | 0.786 ± 0.1
53 | ENQGQKKKKKKR | 0.733 ± 0.12
54 | EPDISTRGPGWT | 0.74 ± 0.026
55 | EPEPALTSAPPA | 0.715 ± 0.023
56 | EPGREKRRIVQK | 0.679 ± 0.042
57 | EPIMVKKACTDG | 0.645 ± 0.029
58 | EQLRLQSIECGE | 0.631 ± 0.0073
59 | EQNKQPEKETYN | 0.625 ± 0.076
60 | EQSLRHKCRPSV | 0.596 ± 0.014
61 | EREGGWEVNKWR | 0.757 ± 0.079
62 | ERGKREMRKNLT | 0.681 ± 0.018
63 | ERGKRKASHRRR | 0.683 ± 0.041
64 | ERIIGNRCYVRK | 0.666 ± 0.039
65 | ERRKSKRKNENE | 0.674 ± 0.0084
66 | ERRQADRHRTTP | 0.766 ± 0.05
67 | ERSRKVSWRFIR | 0.6746 ± 0.0033
68 | ERYKHKKMKNNE | 0.699 ± 0.097
69 | ESAARGWSSGVG | 0.726 ± 0.079
70 | ESAVHRTRRIPY | 0.7888 ± 0.0046
71 | ESGRGGVGVGWG | 0.709 ± 0.096
72 | ESLMYGYWGFAR | 0.727 ± 0.045
73 | ESRRKRRVAGPN | 0.7072 ± 0.0066
74 | ESYGIVEEGVYS | 0.652 ± 0.082
75 | ETKRRQEQNIVR | 0.721 ± 0.082

Row | Sequence | protein stability index
76 | ETKSDRHDRTGT | 0.655 ± 0.015
77 | ETVNGVGSRWGF | 0.741 ± 0.1
78 | EVALDRLKNRGG | 0.671 ± 0.028
79 | EVCPRGIAGGVV | 0.678 ± 0.013
80 | EVDHLPHQVFRY | 0.6671 ± 0.0021
81 | EVERKNKESGKI | 0.717 ± 0.011
82 | EVGMDLTTGPIS | 0.619 ± 0.056
83 | EVGQYVEWSCLL | 0.671 ± 0.019
84 | EVLFWRGVSRME | 0.725 ± 0.16
85 | EVRWIGLPMCTS | 0.6524 ± 0.0023
86 | EVVFVARSGSGV | 0.654 ± 0.008
87 | EVVRTWAVVEGG | 0.646 ± 0.11
88 | EWGDLDGRGEPR | 0.74 ± 0.0075
89 | EYGQTDENKMRM | 0.687 ± 0.096
90 | EYIWLSLGSVYI | 0.624 ± 0.05
91 | EYRKSVERLRVD | 0.687 ± 0.053
92 | EYTIKTENKYKI | 0.747 ± 0.13
93 | EYVKFGMEHILE | 0.675 ± 0.024
94 | FAFRGFLIGCGV | 0.54 ± 0.011
95 | FAGAEFCGPVGV | 0.629 ± 0.0024
96 | FAKLDRVGACRW | 0.764 ± 0.013
97 | FALSSSLIRAFL | 0.726 ± 0.00088
98 | FALYVHHSLSFG | 0.685 ± 0.02
99 | FCGACFRGDVLV | 0.67 ± 0.017
100 | FCGGSWTDGFGW | 0.737 ± 0.028

Row | Sequence | protein stability index
101 | FCGLCCDPNRVP | 0.708 ± 0.036
102 | FCHLGSPATDFR | 0.646 ± 0.013
103 | FCIRLFLLPLCP | 0.5869 ± 0.0055
104 | FCLDLLVGLVFL | 0.546 ± 0.035
105 | FCLGPSLSSSSL | 0.714 ± 0.027
106 | FCLGWWVAVCGL | 0.487 ± 0.04
107 | FCPPLAFPPPLS | 0.743 ± 0.028
108 | FCSMLPSHLPEA | 0.6972 ± 0.0027
109 | FCYLCARMPYRS | 0.662 ± 0.13
110 | FDAWSLASASLV | 0.741 ± 0.036
111 | FDSGLTTHQRDA | 0.686 ± 0.029
112 | FDSVAVLYSGGV | 0.66 ± 0.0078
113 | FELEQNCESATS | 0.706 ± 0.013
114 | FELVEAAYISEE | 0.626 ± 0.058
115 | FESFHLENRGEK | 0.706 ± 0.04
116 | FESRDMVGWFGG | 0.674 ± 0.019
117 | FFCDFFYLSSHF | 0.716 ± 0.019
118 | FFCILCAHWFPL | 0.589 ± 0.086
119 | FFFLPSPTFLPP | 0.764 ± 0.046
120 | FFGCVLRPCLRG | 0.72 ± 0.0076
121 | FFGYLVDEGLWV | 0.738 ± 0.0084
122 | FFKNAILFVSCE | 0.548 ± 0.049
123 | FFLGAPVRQFFF | 0.582 ± 0.011
124 | FFLLGRGVCLGA | 0.663 ± 0.054
125 | FFLRNRPPLCGQ | 0.665 ± 0.012

Row | Sequence | protein stability index
126 | FFLSSLFPSFSS | 0.796 ± 0.044
127 | FFRDDNRDHKRT | 0.689 ± 0.017
128 | FFSFYPVYPLSA | 0.527 ± 0.021
129 | FFSLISVFCPYP | 0.533 ± 0.065
130 | FFWFFFLRFLFS | 0.568 ± 0.031
131 | FGAGVWVGRVGG | 0.649 ± 0.048
132 | FGARKVELRWMV | 0.53 ± 0.0092
133 | FGCLGVLGSGRC | 0.728 ± 0.037
134 | FGGMSGVLFRMV | 0.663 ± 0.054
135 | FGLSVSSMSWNL | 0.714 ± 0.0078
136 | FGLVYCSGLTVS | 0.54 ± 0.0079
137 | FGSPVGSAGSCF | 0.647 ± 0.095
138 | FGSVFMSFFLCS | 0.522 ± 0.037
139 | FGTKHFGGWGGV | 0.745 ± 0.015
140 | FGVGGAVGWRLR | 0.677 ± 0.052
141 | FGVVLEGAGGGG | 0.702 ± 0.07
142 | FHDVVSKKHSLK | 0.705 ± 0.032
143 | FHLPLSSHDPLL | 0.747 ± 0.11
144 | FHSLTDSSPPGL | 0.649 ± 0.022
145 | FIFPPLFFSPVL | 0.788 ± 0.13
146 | FIGGCYCSVKSL | 0.705 ± 0.047
